Measured values from paper PMC3351836 (Science (New York, N.y.), 2011).

B1: NIH45-46 (antibody, V domains shown)
VH: QVRLSQSGGQMKKPGESMRLSCRASGYEFLNCPINWIRLAPGRRPEWMGWLKPRGGAVNYARKFQGRVTMTRDVYSDTAFLELRSLTSDDTAVYFCTRGKYCTARDYYNWDFEHWGRGAPVTVSS
VL: EIVLTQSPATLSLSPGETAIISCRTSQSGSLAWYQQRPGQAPRLVIYSGSTRAAGIPDRFSGSRWGADYNLSISNLESGDFGVYYCQQYEFFGQGTKVQVD
B2: 3BNC60 (antibody, V domains shown)
VH: QVHLSQSGAAVTKPGASVRVSCEASGYKISDHFIHWWRQAPGQGLQWVGWINPKTGQPNNPRQFQGRVSLTRQASWDFDTYSFYMDLKAVRSDDTAIYFCARQRSDFWDFDVWGSGTQVTVSS
VL: DIQMTQSPSSLSARVGDTVTITCQANGYLNWYQQRRGKAPKLLIYDGSKLERGVPARFSGRRWGQEYNLTINNLQPEDVATYFCQVYEFIVPGTRLDLK

Molecular target: YU2-gp120 (HIV-1 group M subtype B, isolate YU-2, UniProt P35961)
Experiment: ELISA

Row | Binder | binding result
1 | B1 | binds
2 | B2 | binds
